Test results as given in publication doi:10.1101/2025.11.18.689095 (bioRxiv, 2025).
Numbering of substitutions follows the chain as printed. Names may count otherwise.

Test system: biotinylated full-length Hsp90
Test: BLI, Tom70 mutants binding to biotinylated full-length Hsp90
Design: species or system human
Details: biotinylated full-length Hsp90 immobilized, Tom70 40 µM, Fig S7B
Procedure: Biotinylated Hsp90 proteins were immobilized onto streptavidin biosensor probes, and experiments were conducted in buffer containing 20 mM sodium phosphate (pH 7), 150 mM NaCl, 1% BSA, 0.6 M sucrose, and 1 mM TCEP[68]. […] To combat heterogenous binding, dissociation curves were fit with a two-phase exponential curve. Due to the association rate (kon) being too rapid to quantify, kon values were indirectly estimated by combining koff values obtained from BLI with KD values determined by ITC ( kon=koffBLI/KDITC ). All data are corrected for non-specific binding. Error is given as the standard deviation of at least two measurements.
Supplementary Figure 7: (A) Interacting residues between Tom70 and Hsp90EEVD peptide. (B) BLI sensorgrams of biotinylated full-length Hsp90 assayed to Tom70 mutants. WT refers to “wild-type” Tom70. All Tom70 concentrations are at 40 µM. Dotted line demarcates the beginning of the dissociation phase. (C-D) ITC thermograms and isotherms for the interaction of Tom70 to an (C) amidated Hsp90EEVD peptide and a (D) Hsp90EQVD peptide. N.D. stands for “not-detected” due to the lack of sufficient heat generated.
(1 picture or pasted object on this page, not shown here)

B1: K118A: K118A mutation in hTom70 (protein)
chain: MNSLDRAQAAANKGNKYFKAGKYEQAIQCYTEAISLCPTEKNVDLSTFYQNRAAAFEQLQKWKEVAQDCTKAVELNPKYVKALFRRAKAHEKLDNKKECLEDVTAVCILEGFQNQQSMLLADKVLKLLGKEKAKEKYKNREPLMPSPQFIKSYFSSFTDDIISQPMLKGEKSDEDKDKEGEALEVKENSGYLKAKQYMEEENYDKIISECSKEIDAEGKYMAEALLLRATFYLLIGNANAAKPDLDKVISLKEANVKLRANALIKRGSMYMQQQQPLLSTQDFNMAADIDPQNADVYHHRGQLKILLDQVEEAVADFDECIRLRPESALAQAQKCFALYRQAYTGNNSSQIQAAMKGFEEVIKKFPRCAEGYALYAQALTDQQQFGKADEMYDKCIDLEPDNATTYVHKGLLQLQWKQDLDRGLELISKAIEIDNKCDFAYETMGTIEVQRGNMEKAIDMFNKAINLAKSEMEMAHLYSLCDAAHAQTEVAKKYGLKPPTL
**Q.** B1 was tested. Which “binding of Tom70 mutant to Hsp90” value did it give?
**A.** The value was “eliminated binding”.

B2: R192A: R192A mutation in Tom70 (protein)
chain: B1 chain with A11K, R85A
**Q.** B2 was tested. Which “binding of Tom70 mutant to Hsp90” value did it give?
**A.** The value was “abrogated binding”.

B3: K188A: K188A mutation in Tom70 (protein)
chain: B1 chain with A11K, K81A
**Q.** Which “binding of Tom70 mutant to Hsp90” value does the source give for B3 here?
**A.** The value was “abrogated binding”.

B4: N158A: N158A mutation in hTom70 (protein)
chain: B1 chain with A11K, N51A
**Q.** For B4, which “binding of Tom70 mutant to Hsp90” value is on record?
**A.** Its value is “eliminated binding”.
